Measured values from US20250250312A1, “BIFUNCTIONAL PEPTIDE WITH MU[…] VIRUS BINDING PROPERTIES” (priority 2022, published 2025).

target: receptor binding domain (RBD) of SARS-CoV-2 alpha variant (B.1.1.7) (SARS-CoV-2), P0DTC2

In the case of EEQAKTFLDKFNHEAEDLFYQSSGLGKGDFR (modifications not checked) [p6 peptide], the Kd is reported as 320 nM.

target: receptor binding domain (RBD) of SARS-CoV-2 delta variant (B.1.617.2) (SARS-CoV-2), P0DTC2

EEQAKTFLDKFNHEAEDLFYQSSGLGKGDFR (modifications not checked) [p6 peptide] showed a Kd of 190 nM.

target: T1, receptor binding domain (RBD) of SARS-CoV-2 wildtype (2019-nCoV) (SARS-CoV-2), P0DTC2

Work on EEQAKTFKDKFDHEAEDKFYQDSGLGKGDFR (modifications not checked) [p6(K)8,18(D)12,22] yielded a Kd of 10000 nM.

target: T1, receptor binding domain (RBD) of …; remark: another data set of the same source

Going from EEQAKTFLDCFNHEAEDLFYQSS (modifications not checked) [p4C10] to EEQAKTFLCKFNHEAEDLFYQSS (modifications not checked) [p4C9], the Kd rises from 331 nM to 3230 nM (9.8-fold).

First: EEQCKTFLDKFNHEAEDLFYQSS (modifications not checked) [p4C4]
Second: EECAKTFLDKFNHEAEDLFYQSS (modifications not checked) [p4C3]
The Kd of the first is 31-fold higher: 1300 nM for the first, 42 nM for the second.

Compared with EEQAKTFLDKFCHEAEDLFYQSS (modifications not checked) [p4C12], EEQAKTFLDKFNHEAEDCFYQCS (modifications not checked) [p4C18, 22] is 9.4-fold lower in Kd: 2050 nM for the first, 218 nM for the second.

First: EEQAKTFCDKFCHEAEDLFYQSS (modifications not checked) [p4C8, 12]
Second: EEQCKTFCDKFNHEAEDCFYQCS (modifications not checked) [p4C4, 8, 18, 22]
The Kd of the first is 8.5-fold lower: 47 nM for the first, 400 nM for the second. The first binds more tightly here.

Going from ECQAKTFLDKFNHEAEDLFYQSS (modifications not checked) [p4C2] to EEQAKTFLDKFNHECEDLCYQSS (modifications not checked) [p4C15, 19], the Kd rises from 34 nM to 238 nM (7-fold).

Compared with EEQAKTFCDKFNHEAEDLFYQSS (modifications not checked) [p4C8], EEQAKTCLDKFNHEAEDLFYQSS (modifications not checked) [p4C7] is 6.9-fold higher in Kd: 281 nM for the first, 1940 nM for the second. The first binds more tightly here.

First: EEQCKTFCDKFNHEAEDLFYQSS (modifications not checked) [p4C4, 8]
Second: EEQAKTFLDKFNCEAEDLFYQSS (modifications not checked) [p4C13]
The Kd of the first is 2.1-fold higher: 59 nM for the first, 28 nM for the second. The second binds more tightly here.

Compared with EEQACTFLDKFNHEAEDLFYQSS (modifications not checked) [p4C5], EEQAKTFLDKCNHECEDLFYQSS (modifications not checked) [p4C11, 15] is 31-fold lower in Kd: 2140 nM for the first, 68 nM for the second. The second binds more tightly here.

Work on EEQAKTFLDKCNHEAEDLFYQSS (modifications not checked) [p4C11] yielded a Kd of 12 nM.

target: T1, receptor binding domain (RBD) of …; remark: another data set of the same source

Going from EAAAKEEQAKTFLDKFNHEAEDLFYQSCGLGKGDFRC (modifications not checked) [p6-rigid-dis] to EEQAKTFLDKFNHEAEDLFYQSCGLGKGDFRC (modifications not checked) [p6-dis], the Kd falls from 5140 nM to 2600 nM (2-fold).

Binder EAAAKEEQAKTFLDKFNHEAEDLFYQSSGLGKGDFR (modifications not checked) [p6-rigid] has a Kd of 4530 nM.
